Experimental findings from US20210283212A1 (RA PHARMACEUTICALS, published 2021) are described below.

The labels stand for the following.
B1: R3106 (peptide)
peptide: Ac-[Nva]C[Phg]T[Trp(7-aza)]EY[NMeS]H[hCys][Nva]-NH2
modifications: linker 2-10 via pXylylene
SMILES: CCC[C@H](NC(=O)[C@@H]1CCSCc2ccc(cc2)CSC[C@H](NC(=O)[C@H](CCC)NC(C)=O)C(=O)N[C@@H](c2ccccc2)C(=O)N[C@@H]([C@@H](C)O)C(=O)N[C@@H](Cc2c[nH]c3ncccc23)C(=O)N[C@@H](CCC(=O)O)C(=O)N[C@@H](Cc2ccc(O)cc2)C(=O)N(C)[C@@H](CO)C(=O)N[C@@H](Cc2c[nH]cn2)C(=O)N1)C(N)=O
B2: R3104 (peptide)
peptide: Ac-[Nva][hCys][Phg]T[Trp(7-aza)]EY[NMeS]HC[Nva]-NH2
modifications: linker 2-10 via pXylylene
SMILES: CCC[C@H](NC(=O)[C@@H]1CSCc2ccc(cc2)CSCC[C@H](NC(=O)[C@H](CCC)NC(C)=O)C(=O)N[C@@H](c2ccccc2)C(=O)N[C@@H]([C@@H](C)O)C(=O)N[C@@H](Cc2c[nH]c3ncccc23)C(=O)N[C@@H](CCC(=O)O)C(=O)N[C@@H](Cc2ccc(O)cc2)C(=O)N(C)[C@@H](CO)C(=O)N[C@@H](Cc2c[nH]cn2)C(=O)N1)C(N)=O
B3: R3108 (peptide)
peptide: Ac-[Nva][hCys][Phg]T[Trp(7-aza)]EY[NMeS]H[hCys][Nva]-NH2
modifications: linker 2-10 via pXylylene
SMILES: CCC[C@H](NC(=O)[C@@H]1CCSCc2ccc(cc2)CSCC[C@H](NC(=O)[C@H](CCC)NC(C)=O)C(=O)N[C@@H](c2ccccc2)C(=O)N[C@@H]([C@@H](C)O)C(=O)N[C@@H](Cc2c[nH]c3ncccc23)C(=O)N[C@@H](CCC(=O)O)C(=O)N[C@@H](Cc2ccc(O)cc2)C(=O)N(C)[C@@H](CO)C(=O)N[C@@H](Cc2c[nH]cn2)C(=O)N1)C(N)=O
B4: R3000 (peptide)
peptide: Ac-[Nva]CYKNYH[Trp(7-aza)]EYP[Tle]Y-NH2
SMILES: CCC[C@H](NC(C)=O)C(=O)N[C@@H](CS)C(=O)N[C@@H](Cc1ccc(O)cc1)C(=O)N[C@@H](CCCCN)C(=O)N[C@@H](CC(N)=O)C(=O)N[C@@H](Cc1ccc(O)cc1)C(=O)N[C@@H](Cc1c[nH]cn1)C(=O)N[C@@H](Cc1c[nH]c2ncccc12)C(=O)N[C@@H](CCC(=O)O)C(=O)N[C@@H](Cc1ccc(O)cc1)C(=O)N1CCC[C@H]1C(=O)N[C@H](C(=O)N[C@@H](Cc1ccc(O)cc1)C(N)=O)C(C)(C)C
B5: R3101 (peptide)
peptide: VCGTWEYSHGCV
modifications: not fully specified; [mXylyl(2,10)]Ac-Nvl-C-Phg-T-azaTrp-E-Y-(N-Me)S-H-G-C-Nvl-NH2

Starred links: 1 amine or outer side, 2 acyl side, 3 side chain; linkers in the order of their positions; H or OH if unused. Positions of bridges follow the written chain, without caps; N, C: chain ends. Non-standard residues stand in square brackets, D forms with d. Primed or numbered codes have the meaning given here. *: point of attachment. mXylyl(3) = bridging moiety between the two residues given in brackets; mXylyl″ = bridging moiety between the two marked residues; Trp(7-aza) = N[C@@H](Cc1c[nH]c2ncccc12)C(=O)O; Phe(3-Cl) = N[C@@H](Cc1cccc(Cl)c1)C(=O)O; Tiq1c(1S) = O=C(O)[C@H]1NCCc2ccccc21; pXylylene = c1cc(C[*:2])ccc1C[*:1]; dPhg = N[C@@H](C(=O)O)c1ccccc1; Phg = N[C@H](C(=O)O)c1ccccc1; Tle = CC(C)(C)[C@H](N)C(=O)O; NMeS = CN[C@@H](CO)C(=O)O; hCys = N[C@@H](CCS)C(=O)O; Heptanoyl = CCCCCCC(=O)*; Nle = CCCC[C@H](N)C(=O)O; Pra = C#CC[C@H](N)C(=O)O; Nva = CCC[C@H](N)C(=O)O; Sar = CNCC(=O)O Some results are limits rather than exact numbers.

This assay concerns the target human C5 protein (human, UniProt P01031 19-673; P01031 678-1676). The assay can be described thus: cell-based or functional assay.
As to Ac-CVARFCD[Tle]Y[Trp(7-aza)]EYP[Phg][Nva]-NH2 (linker 1-6 via mXylyl(3)) [R3150], the “Avg. IC50, human hemolysis assay” value was found to be 32 nM. Regarding Ac-C[Tle]ERFCD[Tle]YWEF-NH2 (linker 1-6 via mXylyl(3)) [R3139], the “Avg. IC50, human hemolysis assay” value is 97.2 nM.

In the case of Ac-CVERFCDVYWEFP-NH2 (linker 1-6 via mXylyl(3)) [R3141], the “Avg. IC50, human hemolysis assay” value was 24.5 nM. With Ac-[Nva]C[Phg]T[Trp(7-aza)]EY[NMeS]HC-NH2 (linker 2-10 via mXylyl″) [R3013] the figure was 344 nM; with Ac-[Nva][hCys][Phg]T[Trp(7-aza)]EY[NMeS]H[hCys][Nva]-NH2 (linker 2-10 via mXylyl(3)) [R3107], over 75000 nM; with B1, over 5000 nM. Turning to B2, the “Avg. IC50, human hemolysis assay” value is over 2000 nM. B3: the “Avg. IC50, human hemolysis assay” value was over 75000 nM. With Ac-Y[Nva]C[Phg]T[Trp(7-aza)]EY[NMeS]HC[Nva]-NH2 (linker 3-11 via mXylyl(3)) [R3113] the figure was over 5000 nM; with Ac-CAERFCD[Tle]YWEYP[dPhg][Nva]-NH2 (linker 1-6 via mXylyl(3)) [R3149], 13.6 nM. Ac-[Nva]C[Phg]T[Trp(7-aza)]EY[NMeS]HC[Nva]-NH2 (linker 2-10 via mXylyl″) [R3012]: the “Avg. IC50, human hemolysis assay” value is 148 nM. With Ac-[Nva]C[Phg]T[Trp(7-aza)]EY[NMeS]HC[Nva]P-NH2 (linker 2-10 via mXylyl″) [R3011] the figure was 112 nM. With Ac-[Nva]C[Phg]T[Trp(7-aza)]EY[NMeS]H[hCys][Nva]-NH2 (linker 2-10 via mXylyl(3)) [R3105] the figure was over 5000 nM; with Ac-[Nva]C[Phg][dA][Trp(7-aza)]EY[NMeS]HC[Nva]-NH2 (linker 2-10 via mXylyl(3)) [R3133], over 75000 nM; with Ac-CVERFCDVYWEYP-NH2 (linker 1-6 via mXylyl(3)) [R3140], 17.9 nM. The value for B4 was over 10000 nM. Turning to Ac-[Nva]C[Phg]T[Trp(7-aza)]E[Phe(3-Cl)][NMeS]AC[Nva]-NH2 (linker 2-10 via mXylyl(3)) [R3134], the “Avg. IC50, human hemolysis assay” value is over 5000 nM. The value for CVERFCDGYWEYP ([mXylyl(1,6)]Ac-C-V-E-R-F-C-D-Tbg-Y-W-E-Y-P-NH2) [R3143] was 18.6 nM; that for Ac-[Nva]CYE[Sar][Tle]Y[Trp(7-aza)]EC[Nva]P[Nva]-NH2 (linker 2-10 via mXylyl″) [R3009] was over 100000 nM. Consider Ac-CVERFCD[Tle]YWEF-NH2 (linker 1-6 via mXylyl(3)) [R3138], for which the “Avg. IC50, human hemolysis assay” value is 87.2 nM.

Ac-CVERFCDVY[Trp(7-aza)]EYP-NH2 (linker 1-6 via mXylyl(3)) [R3142]: the “Avg. IC50, human hemolysis assay” value worked out at 44.6 nM. Regarding Ac-C[Tle]ERFCDVYWEF-NH2 (linker 1-6 via mXylyl(3)) [R3146], the “Avg. IC50, human hemolysis assay” value is 107 nM. Regarding Heptanoyl-C[dPhg]T[Trp(7-aza)]EY[NMeS]AC[Nva]-NH2 (linker 1-9 via mXylyl(3)) [R3137], the “Avg. IC50, human hemolysis assay” value was over 100000 nM.

In the case of B5, the “Avg. IC50, human hemolysis assay” value was over 100000 nM. With Ac-[Nva]T[Phg]C[Trp(7-aza)]EY[NMeS]AC[Nva]-NH2 (linker 4-10 via mXylyl(3)) [R3111] the figure was over 5000 nM. Turning to Ac-[Nle]C[Phg]T[Trp(7-aza)]EY[NMeS]HC[Nva]-NH2 (linker 2-10 via mXylyl(3)) [R3112], the “Avg. IC50, human hemolysis assay” value was over 5000 nM. The value for Ac-[Nva]CYNN[Tle]E[Trp(7-aza)]ECP[Phg][Tle]-NH2 (linker 2-10 via mXylyl(3)) [R3127] was over 75000 nM; that for Ac-[Nva]C[Phg]T[Trp(7-aza)]EYPHC[Nva]-NH2 (linker 2-10 via mXylyl(3)) [R3102] was 978 nM. With Ac-[Nva]C[Tiq1c(1S)]T[Trp(7-aza)]EY[NMeS]HC[Nva]-NH2 (linker 2-10 via mXylyl(3)) [R3122] the figure was over 50000 nM; with Ac-[Nva]CYE[Sar][Tle]Y[Trp(7-aza)]E[Nva][Nva]PC-NH2 (linker 2-13 via mXylyl″) [R3010], over 100000 nM; with Heptanoyl-[Nva]C[dPhg]T[Trp(7-aza)]EY[NMeS]AC[Nva]-NH2 (linker 2-10 via mXylyl(3)) [R3136], over 50000 nM. In the case of Ac-CAERFCD[Tle]YWEYP[Phg][Nva]-NH2 (linker 1-6 via mXylyl(3)) [R3148], the “Avg. IC50, human hemolysis assay” value is 8.5 nM. With Ac-[Nva][hCys][Phg]T[Trp(7-aza)]EY[NMeS]HC[Nva]-NH2 (linker 2-10 via mXylyl(3)) [R3103] the figure was over 25000 nM; with Ac-[Nva]CYNN[Tle]E[Trp(7-aza)]ECP[Phg][Tle]-NH2 (cysteine pairing not given here) [R3126], over 3000 nM.

For Ac-CVERFCDVYWEF[Pra]-NH2 (linker 1-6 via mXylyl(3)) [R3147], the “Avg. IC50, human hemolysis assay” value was 138 nM. The value for Ac-[Nva]C[Phg]T[Trp(7-aza)]EY[NMeS][dA]C[Nva]-NH2 (linker 2-10 via mXylyl(3)) [R3135] was over 25000 nM.
